Measured values: patent USRE48267E1, “Variants of C-type natriuretic peptide” (priority 2009, dated 2020)
Where a SMILES comes first, the peptide text is derived from it. Bridges are numbered along the chain shown (N, C = ends). Where no end group is shown, it is not given here. [ ]: non-standard residue; d: D form. PEO12 = PEO12, 0.6 kDa, monodispersed; PEO24 = PEO24, 1.2 kDa, monodispersed; PEG2K = PEG2K (polydispersed); Tle = CC(C)(C)[C@H](N)C(=O)O

Columns and labels:
Recombinant human NEP = Recombinant human NEP (Homo sapiens, UniProt P08473); test: in vitro NEP cleavage assay (disappearance of non-cleaved CNP variant)
Recombinant human NEP, sequence (P08473 whole entry): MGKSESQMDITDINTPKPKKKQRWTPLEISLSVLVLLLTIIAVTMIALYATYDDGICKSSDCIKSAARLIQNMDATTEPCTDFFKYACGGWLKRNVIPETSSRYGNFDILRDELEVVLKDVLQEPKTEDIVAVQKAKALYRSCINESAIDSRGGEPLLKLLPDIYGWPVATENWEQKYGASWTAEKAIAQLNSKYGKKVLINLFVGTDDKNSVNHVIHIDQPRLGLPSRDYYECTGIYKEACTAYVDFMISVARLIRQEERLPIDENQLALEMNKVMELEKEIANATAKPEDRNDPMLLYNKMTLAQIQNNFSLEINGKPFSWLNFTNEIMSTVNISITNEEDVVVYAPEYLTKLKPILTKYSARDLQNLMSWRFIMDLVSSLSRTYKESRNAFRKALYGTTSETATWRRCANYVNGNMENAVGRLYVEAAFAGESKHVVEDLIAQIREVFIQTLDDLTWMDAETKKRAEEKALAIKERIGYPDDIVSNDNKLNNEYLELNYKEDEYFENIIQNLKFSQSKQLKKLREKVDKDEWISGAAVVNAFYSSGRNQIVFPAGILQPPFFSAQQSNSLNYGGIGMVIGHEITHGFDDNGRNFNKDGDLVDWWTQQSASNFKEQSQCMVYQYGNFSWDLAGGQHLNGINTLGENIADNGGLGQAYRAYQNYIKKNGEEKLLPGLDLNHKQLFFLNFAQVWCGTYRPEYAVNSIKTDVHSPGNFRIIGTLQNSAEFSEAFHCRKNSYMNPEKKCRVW
Experimental: To determine the effects of amino acid substitutions, amino acid extensions, backbone modifications, side chain modifications and PEGylation on the susceptibility of CNP variants to neutral endopeptidase (NEP) cleavage, peptide cleavage assays were carried out using an in vitro assay that monitored disappearance of the non-cleaved CNP variant.
Recombinant human NEP (1 ug/mL final concentration) was added to 100 uM CNP variant diluted in 0.1 M Tris, pH 7. The reaction mixture was incubated at 37° C. for various periods of time, and the reaction was quenched with EDTA (10 mM final) followed by heat denaturation. The reaction mixture was reduced and then the reaction products were analyzed using HPLC and mass spectroscopy. The half-life of the CNP variant was calculated based on the disappearance of intact CNP variant over time.

[1] = target: T1, NPR-B (natriuretic peptide receptor B), murine, expressed endogenously on NIH3T3 cells (murine, UniProt Q6VVW5 17-1047); test: cell-based or functional assay
T1 sequence (looked up): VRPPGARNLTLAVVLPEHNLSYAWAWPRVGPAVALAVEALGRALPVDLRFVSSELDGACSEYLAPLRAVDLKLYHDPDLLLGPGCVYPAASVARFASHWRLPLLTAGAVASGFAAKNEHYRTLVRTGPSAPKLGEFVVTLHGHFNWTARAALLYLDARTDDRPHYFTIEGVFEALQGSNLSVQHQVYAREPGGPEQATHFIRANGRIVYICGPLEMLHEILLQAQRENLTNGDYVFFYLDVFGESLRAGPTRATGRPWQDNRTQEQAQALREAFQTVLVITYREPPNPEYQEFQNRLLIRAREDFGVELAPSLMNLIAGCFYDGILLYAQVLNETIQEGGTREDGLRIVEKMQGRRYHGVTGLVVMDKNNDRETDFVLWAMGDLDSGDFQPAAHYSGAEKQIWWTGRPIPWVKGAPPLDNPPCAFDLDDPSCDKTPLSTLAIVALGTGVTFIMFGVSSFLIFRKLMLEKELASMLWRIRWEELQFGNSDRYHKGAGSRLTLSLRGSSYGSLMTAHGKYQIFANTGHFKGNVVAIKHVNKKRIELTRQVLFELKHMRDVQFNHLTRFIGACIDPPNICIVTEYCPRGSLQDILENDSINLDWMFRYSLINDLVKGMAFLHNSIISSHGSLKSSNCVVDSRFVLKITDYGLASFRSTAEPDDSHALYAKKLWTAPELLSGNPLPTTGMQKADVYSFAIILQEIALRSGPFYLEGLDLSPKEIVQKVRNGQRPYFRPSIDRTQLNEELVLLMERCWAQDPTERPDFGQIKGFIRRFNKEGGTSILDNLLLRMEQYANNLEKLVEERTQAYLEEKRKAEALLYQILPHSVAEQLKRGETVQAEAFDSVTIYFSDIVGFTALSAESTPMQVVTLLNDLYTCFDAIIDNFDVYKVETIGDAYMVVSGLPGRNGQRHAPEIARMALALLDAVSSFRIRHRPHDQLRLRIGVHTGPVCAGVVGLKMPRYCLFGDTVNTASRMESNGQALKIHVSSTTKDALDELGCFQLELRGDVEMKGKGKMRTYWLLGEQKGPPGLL

Molecule: CC[C@H](C)[C@@H]1NC(=O)[C@H](CCCNC(=N)N)NC(=O)[C@H](CC(=O)O)NC(=O)[C@H](CC(C)C)NC(=O)[C@H](CCCCN)NC(=O)[C@H](CC(C)C)NC(=O)[C@H](C(C)(C)C)NC(=O)[C@H](Cc2ccccc2)NC(=O)[C@@H](NC(=O)CNC(=O)[C@H](CCCCN)NC(=O)[C@H](CO)NC(=O)[C@H](CC(C)C)NC(=O)CN)CSSC[C@@H](C(=O)O)NC(=O)CNC(=O)[C@H](CC(C)C)NC(=O)CNC(=O)[C@H](CO)NC(=O)[C@H](CCSC)NC(=O)[C@H](CO)NC(=O)CNC1=O [Analog F] (H-GLSKGCF[Tle]LKLDRIGSMSGLGC-OH; disulfide 6-22)
- resistance to cleavage at the Cys6-Phe7 bond relative to wtCNP22 (Recombinant human NEP): resistance or improved resistance

Molecule: PEG1K-CNP22: CNP22 conjugated at the N-terminus to polydispersed PEG1K
- NEP Cleavage (t1/2, min) (Recombinant human NEP; pH 7): >160 min

Molecule: PEG2K-CNP22(K4G): CNP22 having a K4G substitution, N-terminal PEGylated with PEG2K (PEG2K-GLSGGCFGLKLDRIGSMSGLGC; not fully specified (bridges); ends and bridges not checked; UniProt P23582 105-126, looked up, variant K4G)
- resistance to NEP cleavage (in words) (Recombinant human NEP): only slightly more resistant to NEP cleavage than CNP22

Molecule: PEG2K-GANRRGLSRGCFGLKLDRIGSMSGLGC (ends and bridges not checked) [PEG2K-GANRR-CNP22, K4R]
- cGMP response rel. to 1 uM CNP22; 10 nM peptide, NIH3T3 cells [1]: 15 rel. to 1 uM CNP22 (100)
- cGMP response rel. to 1 uM CNP22; 1 uM peptide, NIH3T3 cells [1]: 45 rel. to 1 uM CNP22 (100)

Molecule: PEG2K-CFGLKLDRIGSMSGLGC (ends and bridges not checked) [PEG2K-CNP17]
- cGMP response rel. to 1 uM CNP22; 10 nM peptide, NIH3T3 cells [1]: 5 rel. to 1 uM CNP22 (100)
- cGMP response rel. to 1 uM CNP22; 1 uM peptide, NIH3T3 cells [1]: 50 rel. to 1 uM CNP22 (100)

Molecule: PEO12-GLSKGCFGLKLDRIGSMSGLGC (ends and bridges not checked) [PEO12-CNP22]
- cGMP response rel. to 1 uM CNP22; 10 nM peptide, NIH3T3 cells [1]: 12 rel. to 1 uM CNP22 (100)
- cGMP response rel. to 1 uM CNP22; 1 uM peptide, NIH3T3 cells [1]: 57 rel. to 1 uM CNP22 (100)

Molecule: PEO12-RGLSRGCFGLKLDRIGSMSGLGC (ends and bridges not checked) [PEO12-R-CNP22, K4R]
- cGMP response rel. to 1 uM CNP22; 10 nM peptide, NIH3T3 cells [1]: 23 rel. to 1 uM CNP22 (100)
- cGMP response rel. to 1 uM CNP22; 1 uM peptide, NIH3T3 cells [1]: 93 rel. to 1 uM CNP22 (100)

Molecule: PEO12-GANQQGLSRGCFGLKLDRIGSMSGLGC (ends and bridges not checked) [PEO12-GANQQ-CNP22, K4R]
- cGMP response rel. to 1 uM CNP22; 10 nM peptide, NIH3T3 cells [1]: 30 rel. to 1 uM CNP22 (100)
- cGMP response rel. to 1 uM CNP22; 1 uM peptide, NIH3T3 cells [1]: 78 rel. to 1 uM CNP22 (100)

Molecule: GLSKGCFGLKLDRIGSMSGLGC (not fully specified (N-terminus); ends and bridges not checked) [(PEO12)-Biotin-CNP22]
- cGMP response rel. to 1 uM CNP22; 10 nM peptide, NIH3T3 cells [1]: 19 rel. to 1 uM CNP22 (100)
- cGMP response rel. to 1 uM CNP22; 1 uM peptide, NIH3T3 cells [1]: 81 rel. to 1 uM CNP22 (100)

Molecule: PEO12-GANRRGLSRGCFGLKLDRIGSMSGLGC (ends and bridges not checked) [PEO12-GANRR-CNP22(K4R)]
- cGMP response rel. to 1 uM CNP22; 10 nM peptide, NIH3T3 cells [1]: 40 rel. to 1 uM CNP22 (100)
- cGMP response rel. to 1 uM CNP22; 1 uM peptide, NIH3T3 cells [1]: 99 rel. to 1 uM CNP22 (100)

Molecule: PEO12-GANSSGLSRGCFGLKLDRIGSMSGLGC (ends and bridges not checked) [PEO12-GANSS-CNP22, K4R]
- cGMP response rel. to 1 uM CNP22; 10 nM peptide, NIH3T3 cells [1]: 8 rel. to 1 uM CNP22 (100)
- cGMP response rel. to 1 uM CNP22; 1 uM peptide, NIH3T3 cells [1]: 52 rel. to 1 uM CNP22 (100)

Molecule: PEO24-GLSRGCFGLKLDRIGSMSGLGC (ends and bridges not checked) [PEO24-CNP22, K4R]
- cGMP response rel. to 1 uM CNP22; 10 nM peptide, NIH3T3 cells [1]: 15 rel. to 1 uM CNP22 (100)
- cGMP response rel. to 1 uM CNP22; 1 uM peptide, NIH3T3 cells [1]: 56 rel. to 1 uM CNP22 (100)

Molecule: PEO24-GANSSGLSRGCFGLKLDRIGSMSGLGC (ends and bridges not checked) [PEO24-GANSS-CNP22, K4R]
- cGMP response rel. to 1 uM CNP22; 10 nM peptide, NIH3T3 cells [1]: 8 rel. to 1 uM CNP22 (100)
- cGMP response rel. to 1 uM CNP22; 1 uM peptide, NIH3T3 cells [1]: 46 rel. to 1 uM CNP22 (100)

Molecule: PEO24-GLSKGCFGLKLDRIGSMSGLGC (ends and bridges not checked) [PEO24-CNP22]
- cGMP response rel. to 1 uM CNP22; 10 nM peptide, NIH3T3 cells [1]: 8 rel. to 1 uM CNP22 (100)
- cGMP response rel. to 1 uM CNP22; 1 uM peptide, NIH3T3 cells [1]: 46 rel. to 1 uM CNP22 (100)

Molecule: PEO24-ERGLSRGCFGLKLDRIGSMSGLGC (ends and bridges not checked) [PEO24-ER-CNP22, K4R]
- cGMP response rel. to 1 uM CNP22; 10 nM peptide, NIH3T3 cells [1]: 6 rel. to 1 uM CNP22 (100)
- cGMP response rel. to 1 uM CNP22; 1 uM peptide, NIH3T3 cells [1]: 60 rel. to 1 uM CNP22 (100)

Molecule: PEO12-ERGLSRGCFGLKLDRIGSMSGLGC (ends and bridges not checked) [PEO12-ER-CNP22, K4R]
- cGMP response rel. to 1 uM CNP22; 10 nM peptide, NIH3T3 cells [1]: 20 rel. to 1 uM CNP22 (100)
- cGMP response rel. to 1 uM CNP22; 1 uM peptide, NIH3T3 cells [1]: 92 rel. to 1 uM CNP22 (100)

Molecule: {PEO4‑(PEO12)3 (branched)}-GLSKGCFGLKLDRIGSMSGLGC (ends and bridges not checked) [PEO4-(PEO12)3 (branched)-CNP22]
- cGMP response rel. to 1 uM CNP22; 10 nM peptide, NIH3T3 cells [1]: 17 rel. to 1 uM CNP22 (100)
- cGMP response rel. to 1 uM CNP22; 1 uM peptide, NIH3T3 cells [1]: 52 rel. to 1 uM CNP22 (100)

Molecule: PEO12-GLSRGCFGLKLDRIGSMSGLGC (ends and bridges not checked) [PEO12-CNP22, K4R]
- cGMP response rel. to 1 uM CNP22; 10 nM peptide, NIH3T3 cells [1]: 13 rel. to 1 uM CNP22 (100)
- cGMP response rel. to 1 uM CNP22; 1 uM peptide, NIH3T3 cells [1]: 44 rel. to 1 uM CNP22 (100)

Molecule: {PEG 1 kDa}-GLSKGCFGLKLDRIGSMSGLGC (ends and bridges not checked; also: PEG polydispersed) [PEG1K-CNP22]
- cGMP response rel. to 1 uM CNP22; 10 nM peptide, NIH3T3 cells [1]: 15 rel. to 1 uM CNP22 (100)
- cGMP response rel. to 1 uM CNP22; 1 uM peptide, NIH3T3 cells [1]: 68 rel. to 1 uM CNP22 (100)

Molecule: PEO24-RGLSRGCFGLKLDRIGSMSGLGC (ends and bridges not checked) [PEO24-R-CNP22, K4R]
- cGMP response rel. to 1 uM CNP22; 10 nM peptide, NIH3T3 cells [1]: 15 rel. to 1 uM CNP22 (100)
- cGMP response rel. to 1 uM CNP22; 1 uM peptide, NIH3T3 cells [1]: 75 rel. to 1 uM CNP22 (100)

Molecule: PEG1K-GANRRGLSRGCFGLKLDRIGSMSGLGC (ends and bridges not checked) [PEG1K-GANRR-CNP22(K4R)]
- cGMP response rel. to 1 uM CNP22; 10 nM peptide, NIH3T3 cells [1]: 15 rel. to 1 uM CNP22 (100)
- cGMP response rel. to 1 uM CNP22; 1 uM peptide, NIH3T3 cells [1]: 56 rel. to 1 uM CNP22 (100)

Molecule: PEO24-GANQQGLSRGCFGLKLDRIGSMSGLGC (ends and bridges not checked) [PEO24-GANQQ-CNP22, K4R]
- cGMP response rel. to 1 uM CNP22; 10 nM peptide, NIH3T3 cells [1]: 16 rel. to 1 uM CNP22 (100)
- cGMP response rel. to 1 uM CNP22; 1 uM peptide, NIH3T3 cells [1]: 73 rel. to 1 uM CNP22 (100)

Molecule: PEO24-GANRRGLSRGCFGLKLDRIGSMSGLGC (ends and bridges not checked) [PEO24-GANRR-CNP22(K4R)]
- cGMP response rel. to 1 uM CNP22; 10 nM peptide, NIH3T3 cells [1]: 28 rel. to 1 uM CNP22 (100)
- cGMP response rel. to 1 uM CNP22; 1 uM peptide, NIH3T3 cells [1]: 82 rel. to 1 uM CNP22 (100)
